21 sequences from a protein production outcome set (Wang et al. 2014) can be followed below.

This data set can be described thus: label from the status in PepcDB records.

“MENLLARLLFAQWFPGLIQLKNYQKEWLVNDFRAAFSVVAVALPVAIAYAQLTGVSAIVGLYSCVLPMLVYALMGTSRQLIVGPDAATCAVIAAVVTPIAAGDPTKHWQLVMTMTAMTGIWCVLASRFKLGIFADFLSRPILLGLLNGVALTIIVGQFAKVVGLKYEQRYLLERLWEAPQRLAELHWPTVALSVATVVVYLVTKRYRPTWPAAMLAILVTTASVWLLHLQEMDVAVVGLTQGGFPQFQAPQFELGEVRELVVPALNLAIVSFVSMMLTARSFAAKNGYDIDANKEFQALGFANIASAFSQGFAISGADSRTAVNDANGGKSQLVSIVAAITIAIIAVFIYEPLQFIPIASLGVVLIIASLSLLDLKAIWILKTRDKDAFYLAIITFISVLVIGVIPGITLAVLLGLFQFLRIVMRPSDQLLGLDEKGTIRTIDETGKASPIPGMVIYRFNSPLTYFNAPYFKRRLLEHAEQNKDVSCVVVDAVSSFTHLDLSVMATLADIHEVLKKRGIRLVLAGRKRRLRQWCELTGISTSEGGILLRADMYLAIKLSGSYLSAVGEGIVPTVQKEPDLEQPPKPIPEVA”: the protein production entry is “failed”.
As to “MENPDSAFLLFRNAPRLPLATMHTPLCGDSHQPDFAFRKPARDALLRPWNGRNHRCGLQDGREICQGQLPAHQKSYWSDCAALPRLFRAYGGAVVRGFLIVGNKAFTQPFSLNDLPGAGRMDVLCRCTSQALFISHGIRRDVEVYLLLLGPPSPPKSILIKGDEVRRMSPDERNVAGHIKKALAVECGKSWKKVHSGVYVSRKGLEELIEELSEKYSIIYLKEDGVDISNAQLPPNPLFVIGDHEGLTEEQEKVVERYAALKLSLSPLSLLAEQCVVIAHHHLDRLQF”, the protein production result was “failed”.
Turning to “MENRKLAVLIDADNAQSSLIAELLAEVAKYGTAIVKRAYGDWTTTQLKGWKEVLHQYAISPIQQFAYTKGKNSTDSALIIDAMDLLYTGNFDGFCLVSSDSDFTRLATRLREGGLTVIGLGEQSKTPRPFIAACDKFVFTEILRPAPPAKPKPETAATADKPKARSSRTRAKAAPHKEKHPLQDMFTSAIEAVARDSGWAELSAVGSYLAKNDPSFDPRNWGHGRLSQMVKKLDFLTVQESRNGSKLHSEIRLRHDGEAAVAEPAAPVETPQPSPSEEAAPPPRKKRSPRKKISPAGLEHHHHHH”, the protein production result is listed as “failed”.
“MENSGAYTFETIAREWHESNKRWSEDHRSRVLRYLELYIFPHIGSSDIRQLKTSHLLAPIKEVDTSGKHDVAQRLQQRVTAIMRYAVQNDYIDSNPASDMAGALSTTKARHYPLEHHHHHH”: the protein production entry is recorded as “not failed”.
For the sequence “MENTKKSPTYVYALGGLEEIGKNTYVVEHEDEIILIDAGIKFANASLPGFDGTVANFDYLIKNNHKIHSLVVTHGHEDHIGGIPHILRHVKIKTIYAPTLAAKLIERRLSEYKDIKPPRIIVFEDESMYKTKYFEVDFYRVCHSIPDSFGICVKTPNGYIVTTGDFRFDFATAGDETNLAKISQISNRGISVLMCESTSAEIPGFSESERYVIDNIRDYMVNIKGRTFISTFASNLGRVEEIIAIAVGLNKKICIIGKSMEANIKTSRKLGYLNVPESSFITHKELPFYKDHEIVVILTGSQGEKMAALNVMANNNHSKITLKPSDTIILSSNPIPGNYAQVEAMVNKLYKLGLTVYENSPNKKIHASGHATRSEHQLMIKAINPSYLFPIHGEYKMFRALKQNAVDQGFDKDHVIIAPNGQKLQLLDGVLSHTNIYVDAEPKFINGYEISSKISKLLSERVVLSSDGILNLVLNADFKKAKLNSAVSISTRGCFFAKESTNLINKISNVAKSSLEEALAKKEFDEKKLKEIVSGNVKSIVWKWRKKNPIINVTIINNDLVEQFRKDNNYVEFIKQAEVEEIEQEVDIDDLISNGL”, the protein production entry is recorded as “failed”.
With “MENVKKCKNFLSTLIKLASSGKQSTETAANVKELVQNLLDGKIEAEDFTSRLYRELNSSPQPYLVPFLKRSLPALRQLTPDSAAFI” the entry was “failed”; with “MEPANMTVAEYLNYWLDTYPKNNVAPSTYRRYTEFAAHIKTHIGGIMMPKLKPAHIQSFYSSLLEKNLSKSTVLKIHRMLHLALKHAVNWQIIISNPTDAVTLEHHHHHH”, “failed”.
As for “MEPISARSMISAAATEAVVASGDGAPRVERRKRLSPAALAVANQKVPPAFSPIVIAGSVRLADFLVIAAVGIALYFALVVRRDGFAWEYIAAILGTTATAVVAFQAADLYEVQLFRGTLKQMTRIISTWSIVFLLFIGASFFAKLGGEVSRLWLGSFFFAGLALLIIERLSVRALVRRWASQGRLDRRTVIVGADANGAKLIEALKAEHADASDIRILGVFDDRNDARSQSTCAGVPKLGKVDDIPEFARRTRVDLVLFALPISAETRILDMLKKLWVLPVDIRLSAHTNKLRFRPRAYSYVGKVPTLDVFEAPITDWDQVIKQVFDRVVGGFILLLAAPVMALVALAIKLDSPGPVLFRQKRFGFNNERIDVLKFRSMYHDQADPTASKVVTRNDPRVTRVGRFIRRTSLDELPQLFNVVFKGNLSLVGPRPHAVQGKLQSQLFDEAVDGYFARHRVKPGITGWAQINGWRGEIDNEEKIQKRVEFDLYYIENWSVLFDLYILLRTPWALLKGENAY”, the entry is “failed”; as for “MEPITQAFAQQFSREWIDAWNAHDLDAILSHYADGFEMSSPMIVQIAGEPSGRLRGKEQVGAYWREALRMIPDLHFEWIATLAGVDSVAIHYRGAKGRLALEVFHFGPDRRVVKALAHYAG”, “not failed”.
As for “MEPKDTTTNDAFKGFTNTACPFLPCHKGVKREFNCLFCYCPLIAYECPGPYQVYTDKNGLTRKDCTNCTLPHDGYLASWNFIQKWLERPVIWSGAAQTTPPTRRPGRAPGDGDEELEHHHHHH”, the protein production entry was “not failed”.
With “MEPLGNRRPCSVCITKNRNCPRFCEYAEYFPYELQSQYESANELFGTPNIITMMQHAPEEKKQMLATSIIMEGNAWTEDPISGGFGMIQKLMWKIMLHKAYLRELQEKIKEEKEKKPASSLY” the entry was “failed”; with “MEPLTALAQSLGLAFASGISAYAAAAFVGLAGHLGWIGPLPGALGVLTDPWVFGTAGALALVEALAMLVPGIATAWEAIHTAIRPFAAAALAVLATWGEPRLAVVAALLGGALGLATHATKLGLRATIDTSPEPVTNAAATTGELGVVAALAWAIWAHPWIALAAALVLLTALLYVVRALWRTVARAIAALFSPPTAPGS”, “failed”.
As for “MEPQEEFITTEEVEQEIVPTVEVEQDVPVDIEGENDDDDEMMNDDEEALEVDMSNNSLTYFDKHTDSVFAIGHHPNLPLVCTGGGDNLAHLWTSHSQPPKFAGTLTGYGESVISCSFTSEGGFLVTADMSGKVLVHMGQKGGAQWKLASQMQEVEEIVWLKTHPTIARTFAFGATDGSVWCYQINEQDGSLEQLMSGFVHQQDCSMGEFINTDKGENTLELVTCSLDSTIVAWNCFTGQQLFKITQAEIKGLEAPWISLSLAPETLTKGNSGVVACGSNNGLLAVINCNNGGAILHLSTVIELKPEQDELDASIESISWSSKFSLMAIGLVCGEILLYDTSAWRVRHKFVLEDSVTKLMFDNDDLFASCINGKVYQFNARTGQEKFVCVGHNMGVLDFILLHPVANTGTEQKRKVITAGDEGVSLVFEVPN”, the entry is “failed”; as for “MEPSGGEQEPGAVRFLDLPWEDVLLPHVLNRVPLRQLLRLQRVSRAFRSLVQLHLAGLRRFDAAQVGPQIPRAALARLLRDAEGLQELALAPCHEWLSDEDLVPVLARNPQLRSVALGGCGQLSRRALGALAEGCPRLQRLSLAHCDWVDGLALRGLADRCPALEELDLTACRQLKDEAIVYLAQRRGAGLRSLSLAVNANVGDAAVQELARNCPELHHLDLTGCLRVGSDGVRTLAEYCPVLRSLRVRHCHHVAESSLSRLRKRGVDIDVEPPLHQALVLLQDMAGFAPFVNLQV”, “not failed”.
As for “MEPTGLMVAAPTASLPEAIGGERNWDYRFTWIRDTAYVIEALSSIGYKYEATEFLYDMMDMITRDNRIRTIYSIDDSNDLEERIIDYEGYRGSRPVRIGNKAVDQLQIDQYGSIVRAIHSMAKAGGIVNSYLWDFVEQVMAKIEYLWKYPDSSIWEFRTEPKQYVYSKVMSWAAFDSAISMAKDLGLSAPIKQWKSIQDEIKKEVLEKGFDTDTNSFVQYYGSKNIDAALLRLPILGFIPANDEKFLGTLSRIEKELMVDGYLFKRYREDDGLKGDEGSFLMLTFWYIEDLILMKRLKKAREVLESVLEKANHLGLYSEEIDEKSGDFLGNFPQALSHLGVIRVAPKLEEALLLEHHHHHH”, the protein production result was “failed”.
With “MEQGAATADKEDFNARGKPTLFQLSFPLLLHSLLSFFVNLADTAIISAYSAEAAAAVAVAKQVMMIAFELSGLVGIGAVIVISRHLGRGEVEAARQVVAVALLTNTLVGLALGLSLMVAGPLVLEQLAGSTSLNDEAGLYLNIVAVGMVFNGFIAAGLACLRAFGHSRLILAFGVGVSAFYLLAEWVLILGVGPLPGMGVKGAALGTFSIRVMTTAILTPVLMWKLGLRFSFSDTVARFATARRMIAIALPSVTDYIAYSFYQIILLGLVARFGVEAVLGRTYTMLAMAFLIVVVMAISQSNEVLIGYRFGERRLEAATSQALRSASLAAAATTSIATLIWLASVPYIRLFTDNPAVIELCGSLLFLTIFIQPGFAFNTILFQSLRAVGDVRWPVFVSLTVTWGLGLSTAWFFCLFLNLGVTGVWLSLIIEETVKGSLFLHRWLSRGVRHEAG” the entry was “failed”; with “MEQQHPTIHTLKIETEFFKAVKERRKTFEIRKNDRNFQVGDILILEEYMNGMYLDDECEAEVIYITDYAQREGYVVLGIELH”, “not failed”; with “MEQRLLNANERSTYGKNAAVKMRKAGRIPAVMYDRHGKSVPIDVDEREFMKLFKLVTESTIVTLNAAGKDYEVFIKDFQHDIVSDKIKHIDFYEVERGKTLRTKVKIRLEGSPEGVRHGGILETGITELELECLPKDLPARIIVDVSALDVNQSLHVRDIKLPEAVTVLTSDDITVAAIKFAAAESTTPAATEGEETEAAAAAPEPAAEDK”, “failed”.
With “MEQTHLKYEQLKAILREMGSVLVAFSGGVDSTFLLRVAHGLLGDKAVAFTATSPTYPESEFREAVGLARSMGARQVVVESNELEIPGFAFNPRNRCYHCKKELFGLCGRTAAELGLAWVADGSNCDDLDDYRPGRAAAGELGVRSPLVEAGLTKADIRELSRELGLPTWDKQAFACLSSRFPYGTEITPERLRMVGACEEFLRENGFRVYRVRFHGDTARIETAPEEIPRLFDPSLRLRIAAFFREAGFAHVAVDLEGYRTGSMNTDAG” the entry was “failed”; with “MEQTQQNHFTALFYKNVLLGILSMAAQSIFILADTFFIANGIGTEALAGLNIVLPLVNIINGLGWMFGVGGATLFSTTVAQKEIKKANQYFSLTIGLVFVIGRLFTLVSLIFSDQIIRGLQGTGVLFGLAKEYYMIYLSCSLLFILNNCLITFLRNDHNPRLATIAFVSGGIVNIILDYVFIYQFGWGMAGAAIATVMSPLTSLILITLHKWSPQRVLRFEKFKVKFQDVREIMSIGFSSFLNEFSSAFVMFLFNIVLLNLVGHVAISAYAIVANLNIIVIAIFTGIGQGAQPLLSRYYGLGETKVLRKFVKLSFITYLVAGFLFFLISQVFTGQIIEVFNSEGNDQLAQIARTAIRLYAISFLFTGLNFMGIYYFSAVRKPKMALMISSLRGFFLIVPVLFILVKLLGLTGVWLAMPVVEFVTFGLMLVGYLAYRNYLKKREAVT”, “failed”.
With “MEQWDHFHNQQEDTDSCSESVKFDARSMTALLPPNPKNSPSLQEKLKSFKAALIALYLLVFAVLIPLIGIVAAQLLKWETKNCSVSSTNANDITQSLTGKGNDSEEEMRFQEVFMEHMSNMEKRIQHILDMEANLMDTEHFQNFSMTTDQRFNDILLQLSTLFSSVQGHGNAIDEISKSLISLNTTLLDLQLNIENLNGKIQENTFKQQEEISKLEERVYNVSAEIMAMKEEQVHLEQEIKGEVKVLNNITNDLRLKDWEHSQTLRNITLIQGPPGPPGEKGDRGPTGESGPRGFPGPIGPPGLKGDRGAIGFPGSRGLPGYAGRPGNSGPKGQKGEKGSGNTLTPFTKVRLVGGSGPHEGRVEILHSGQWGTICDDRWEVRVGQVVCRSLGYPGVQAVHKAAHFGQGTGPIWLNEVFCFGRESSIEECKIRQWGTRACSHSEDAGVTCTL” the entry was “failed”.
